Biological target: T1, P2-TmEnc^BC2-Tag
T1 chain: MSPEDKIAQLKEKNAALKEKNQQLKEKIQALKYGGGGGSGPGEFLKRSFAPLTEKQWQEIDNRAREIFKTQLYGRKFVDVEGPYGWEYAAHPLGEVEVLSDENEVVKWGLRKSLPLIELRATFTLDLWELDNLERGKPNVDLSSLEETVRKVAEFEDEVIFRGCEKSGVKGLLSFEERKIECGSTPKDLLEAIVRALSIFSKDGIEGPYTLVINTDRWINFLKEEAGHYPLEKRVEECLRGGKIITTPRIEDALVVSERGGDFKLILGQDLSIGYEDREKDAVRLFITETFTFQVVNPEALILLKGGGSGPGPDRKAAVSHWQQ

B1: BmTyr-P1 (protein)
chain: MGHSNKYRVRKNVLHLTDTEKRDFVRTVLILKEKGIYDRYIAWHGAAGKFHTPPGSDRNAAHMSSAFLPWHREYLLRFERDLQSINPEVTLPYWEWETDAQMQDPSQSQIWSADFMGGNGNPIKDFIVDTGPFAAGRWTTIDEQGNPSGGLKRNFGATKEAPTLPTRDDVLNALKITQYDTPPWDMTSQNSFRNQLEGFINGPQLHNRVHRWVGGQMGVVPTAPNDPVFFLHHANVDRIWAVWQIIHRNQNYQPMKNGPFGQNFRDPMYPWNTTPEDVMNHRKLGYVYDIELRKSKRSSGGGGSGGGGSTGSPEDEIQALEEENAQLEQENAALEEEIAQLEYGSGSETPGTSESATPESAISHGFPPEVEEQAAGTLPMSCAQESGMDRHPAACASARINV
- melanin formation on CN-PAGE: melanin formation could be demonstrated by color formation on CN-PAGE
- melanin formation on clear native PAGE: The dark high molecular weight bands at 1.0 MDa represent melanin-loaded TmEnc nanospheres
